Common to all, as to test: SPR; BIAcore X100, CM5 chip, 25 °C; […]; HBS-P+ buffer ([…]
For test [1], the target named is HKU4-RBD fused to a C-terminal His-tag (Tylonycteris-bat-CoV-HKU4) (UniProt A3EX94).
Test [2] addresses MERS-RBD fused to a C-terminal His-tag (MERS-CoV) (UniProt K9N5Q8).
For test [3], the target named is peptidase domain of hDPP4 (residues 39-766) fused to a C-terminal His-tag (human, UniProt P27487 39-766). The following applies: both partners purified.
Sequence of peptidase domain of hDPP4 (residues 39-766) fused to a C-terminal His-tag (human, UniProt P27487 39-766) (P27487 39-766): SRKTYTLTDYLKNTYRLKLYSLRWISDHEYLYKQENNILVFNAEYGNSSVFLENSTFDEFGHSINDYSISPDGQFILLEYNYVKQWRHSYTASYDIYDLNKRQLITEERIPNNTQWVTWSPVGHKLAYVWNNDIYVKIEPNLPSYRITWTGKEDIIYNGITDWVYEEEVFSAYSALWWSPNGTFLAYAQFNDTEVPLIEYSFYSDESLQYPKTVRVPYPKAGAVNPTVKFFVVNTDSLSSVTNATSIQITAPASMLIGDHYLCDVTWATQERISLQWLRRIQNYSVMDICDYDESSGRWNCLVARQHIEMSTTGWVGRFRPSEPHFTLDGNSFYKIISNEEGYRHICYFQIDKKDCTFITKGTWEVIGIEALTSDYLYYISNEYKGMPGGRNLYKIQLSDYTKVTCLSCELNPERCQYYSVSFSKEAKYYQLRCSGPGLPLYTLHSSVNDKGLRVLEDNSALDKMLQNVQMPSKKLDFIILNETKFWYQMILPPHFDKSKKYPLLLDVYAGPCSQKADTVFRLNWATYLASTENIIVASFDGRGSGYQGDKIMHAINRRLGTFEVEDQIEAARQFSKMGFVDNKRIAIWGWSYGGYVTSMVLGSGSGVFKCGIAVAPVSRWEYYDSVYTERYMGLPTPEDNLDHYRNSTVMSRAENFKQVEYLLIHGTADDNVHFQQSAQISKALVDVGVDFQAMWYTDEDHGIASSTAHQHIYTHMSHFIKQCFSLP

On to “peptidase domain of TpDPP4 (residues 37-764) fused to a C-terminal His-tag (domain or fragment)”, for which the Kd in test [1] came to 2580 nM.

“peptidase domain of dcDPP4 (residues 39-765) fused to a C-terminal His-tag (domain or fragment)”: the results for the Kd in test [2] and in test [1] were over 18700 nM and over 47700 nM, respectively.

As for “peptidase domain of hDPP4 (residues 39-766) fused to a C-terminal His-tag (from UniProt P27487 39-766) (domain or fragment)”, the Kd in test [1] is 1100 nM.

B1: MERS-RBD fused to a C-terminal His-tag (domain or fragment)
chain: EAKPSGSVVEQAEGVECDFSPLLSGTPPQVYNFKRLVFTNCNYNLTKLLSLFSVNDFTCSQISPAAIASNCYSSLILDYFSYPLSMKSDLSVSSAGPISQFNYKQSFSNPTCLILATVPHNLTTITKPLKYSYINKCSRFLSDDRTEVPQLVNANQYSPCVSIVPSTVWEDGDYYRKQLSPLEGGGWLVASGSTVAMTEQLQMGFGITVQYGTDTNSVCPKLEFANDTKIASQLGNCVEY
For B1, the Kd in test [3] came out at 632 nM.

The record behind these values is PMC7801609, “Isolation of MERS-related coronavirus from lesser bamboo bats that uses DPP4 and infects human-DPP4-transgenic mice” (Nature Communications, 2021).
